Laboratory results: PMC4341239, “High yield purification of full-length functional hERG K^+ channels produced in Saccharomyces cerevisiae” (Microbial Cell Factories, 2015)

Molecular target: the molecule itself
Assay: SEC; fluorescence size exclusion chromatography (FSEC) on Superose 6 10/300 GL; crude membranes solubilized in FC-12 with cholesteryl-hemisuccinate, with 1 uM Astemizole; FSEC buffer 20 mM TRIS-HCl, 0.15 M NaCl, 0.03% DDM; mass by MW standards, amount of detergent in the complex unknown

B1: hERG-TEV-GFP-His 8 fusion protein (full-length hERG alpha-subunit, Kv11.1) (natural protein, human, UniProt Q12809 1-1159, looked up)
chain: MPVRRGHVAPQNTFLDTIIRKFEGQSRKFIIANARVENCAVIYCNDGFCELCGYSRAEVMQRPCTCDFLHGPRTQRRAAAQIAQALLGAEERKVEIAFYRKDGSCFLCLVDVVPVKNEDGAVIMFILNFEVVMEKDMVGSPAHDTNHRGPPTSWLAPGRAKTFRLKLPALLALTARESSVRSGGAGGAGAPGAVVVDVDLTPAAPSSESLALDEVTAMDNHVAGLGPAEERRALVGPGSPPRSAPGQLPSPRAHSLNPDASGSSCSLARTRSRESCASVRRASSADDIEAMRAGVLPPPPRHASTGAMHPLRSGLLNSTSDSDLVRYRTISKIPQITLNFVDLKGDPFLASPTSDREIIAPKIKERTHNVTEKVTQVLSLGADVLPEYKLQAPRIHRWTILHYSPFKAVWDWLILLLVIYTAVFTPYSAAFLLKETEEGPPATECGYACQPLAVVDLIVDIMFIVDILINFRTTYVNANEEVVSHPGRIAVHYFKGWFLIDMVAAIPFDLLIFGSGSEELIGLLKTARLLRLVRVARKLDRYSEYGAAVLFLLMCTFALIAHWLACIWYAIGNMEQPHMDSRIGWLHNLGDQIGKPYNSSGLGGPSIKDKYVTALYFTFSSLTSVGFGNVSPNTNSEKIFSICVMLIGSLMYASIFGNVSAIIQRLYSGTARYHTQMLRVREFIRFHQIPNPLRQRLEEYFQHAWSYTNGIDMNAVLKGFPECLQADICLHLNRSLLQHCKPFRGATKGCLRALAMKFKTTHAPPGDTLVHAGDLLTALYFISRGSIEILRGDVVVAILGKNDIFGEPLNLYARPGKSNGDVRALTYCDLHKIHRDDLLEVLDMYPEFSDHFWSSLEITFNLRDTNMIPGSPGSTELEGGFSRQRKRKLSFRRRTDKDTEQPGEVSALGPGRAGAGPSSRGRPGGPWGESPSSGPSSPESSEDEGPGRSSSPLRLVPFSSPRPPGEPPGGEPLMEDCEKSSDTCNPLSGAFSGVSNIFSFWGDSRGRQYQELPRCPAPTPSLLNIPLSSPGRRPRGDVESRLDALQRQLNRLETRLSADMATVLQLLQRQMTLVPPAYSAVTTPGPGPTSTSPLLPVSPLPTLTLDSLSQVSQFMACEELPPGAPELPQEGPTRRLSLPGQLGALTSQPLHRHGSDPGS
modifications: N-glycosylated in S. cerevisiae
notes: the fusion is 156 kDa; also called hERG-GFP-His 8; hERG-GFP; source: S. cerevisiae strain PAP1500, induced at 15°C; crude membranes solubilized in FC-12 with cholesteryl-hemisuccinate; not shown: GFP (yEGFP, after a TEV cleavage site), C-terminal, kept; His8, C-terminal, kept
stoichiometry N: 4
